Assay results as given in US20100015155A1.

Molecular target: human soluble Abeta (1-40) (human) (UniProt P05067)
Assay: KinExA equilibrium, antigen on sepharose beads, soluble Abeta (1-40) titrated, 37 C

Chain of human soluble Abeta (1-40) (human) (P05067 672-711 limits assumed): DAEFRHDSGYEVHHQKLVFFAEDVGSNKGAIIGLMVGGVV

Substance: murine 266 Fab (Fab fragment of the murine monoclonal antibody designated 266)
- Kd: 0.24 nM
